Experimental data: patent US20120134997A1 (COMPUGEN, published 2012)

Biological target: T1, B7H4-Ig (R&D Systems, Inc. cat.#4206-B7) (mouse, UniProt Q7TSP5 29-256)
T1 construct: Bought reagent; also called Recombinant mouse B7-H4 protein (R&D Systems, CAT #4206-B7); not shown: Ig part of the bought fusion; not described
T1 sequence (looked up): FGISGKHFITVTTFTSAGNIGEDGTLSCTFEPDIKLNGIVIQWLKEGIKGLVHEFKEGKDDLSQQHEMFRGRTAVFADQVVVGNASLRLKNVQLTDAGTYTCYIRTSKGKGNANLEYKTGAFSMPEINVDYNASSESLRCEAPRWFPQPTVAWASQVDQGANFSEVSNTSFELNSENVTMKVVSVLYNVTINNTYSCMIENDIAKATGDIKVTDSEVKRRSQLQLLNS
Test: BIAcore 3000 surface plasmon resonance; Fc fused AI216611 ECD (SEQ ID NO:104) immobilised directly on a CM5 chip (400-500 RU), B7H4-Ig injected at 5 and 10 µM, empty flow cell subtracted
Method: Solution containing two different concentrations of B7H4-Ig (5 and 10 micro molar) was injected. As control, the solutions were also injected onto an empty flow cell with no ligand immobilized.
Data was analyzed using BIAevaluation software ([…].). A zero baseline level was obtained by subtracting the background responses from injection of the analytes through a control flow cell with no ligand immobilized.

binding result: binds
B1: AI216611_T0_P0_ECD_mFc (Fc fused AI216611 ECD, SEQ ID NO:104) (Fc fusion)
chain: LQSQGVSLYIPQATINATVKEDILLSVEYSCHGVPTIEWTYSSNWGTQKIVEWKPGTQANISQSHKDRVCTFDNGSIQLFSVGVRDSGYYVITVTERLGSSQFGTIVLHVSEILYEDGSENLYFQGSGEPRGPTIKPCPPCKCPAPNLLGGPSVFIFPPKIKDVLMISLSPIVTCVVVDVSEDDPDVQISWFVNNVEVHTAQTQTHREDYNSTLRVVSALPIQHQDWMSGKEFKCKVNNKDLPAPIERTISKPKGSVRAPQVYVLPPPEEEMTKKQVTLTCMVTDFMPEDIYVEWTNNGKTELNYKNTEPVLDSDGSYFMYSKLRVEKKNWVERNSYSCSVVHEGLHNHHTTKSFSRTPGK
notes: also called AI216611-ECD-Fc
